Measurements as given in IntAct's records for PubMed 35016035.

B1: Protein FAM90A1 (Homo sapiens), Q86YD7 (parent)
chain: MMARRDPKPGAKRLVRAQTLQKQRRAPVGPRAPPPDEEDPRLKCKNCEAFGHTARSTRCPMKCWKAALVPPNFGEKEGKENLKPWKPQVEANPGPLNKDKGEKEERPRPQDPQRKALLHIFSRKPPEKPLPNQKGSTESSDYLRVASGPMPVHTTSKRPRVDPVLSDRSATEMSDRGSVLASLSPLRKASLSSSSSLGPKERQTGAAADIPQTAVRHQGPEPLLVVKPTHSSPAGGCREVPQAASKTHGLLQAVSPQAQDKRPAVTSQPCPPAATHSLGLGSNLSFGPGAKRSAPAPIQACLNFPKKPRLGPFQIPESAIQGGELGAPENLQPPPAATELGPRTSPQTGTRTPAQVLSGDRQPPHSRPCLPTAQACTMSHHPAASHDGAQPLRVLFRRLENGRWSSSLLTAPSFHSPEKPGAFLAQSPHVSEKSEGPCVRVPPSVLYEDLQVPSSSEDSDSDLE
B2: Speedy protein E4 (Homo sapiens), A6NLX3 (parent)
chain: MASGQARPPFEEESPQPSTTVRSPEVVVDDEVPGPSAPWIDPSPQPQSLGLKRKSEWSDESEEELEEELELERAPEPEDTWVVETLCGLKMKLKRKRASSVLPEHHEAFNRLLGDPVVQKFLAWDKDLRVSDKYLLAMVIAYFSRAGLFSWQYQRIHFFLALYLASDMEEDNQAPKQDIFSFLYGKNYSQRPLFHKLRYQLLCSMRWRTWVSPEEMEEIQAYDPEHWVWARDRTLIS

Variants of: B1
Conditions: with brd4_human BRD4, O60885

Variant	effect of a mutation on the interaction
V394D;F396D;W404D;S406D	disrupting interaction strength

Variants of: B2
Conditions: with brd4_human BRD4, O60885

Variant	effect of a mutation on the interaction
V83D;L86D;M91D;L93D	disrupting interaction strength
